Measured values: US20090305241, “DNA demethylases and uses thereof” (REGENTS OF THE UNIVERSITY OF CALIFORNIA, published 2009)
Residue numbers refer to the chain shown, from its start.

Tests used:
[1] = biological target: T1, DME (MBP-Δ537DME, wild-type glycosylase domain) (UniProt Q8LK56); assay: cleavage_in_vitro; settings: abasic at top position 18; 5mC at bottom position 19; rate reduced approximately 10-fold
T1 sequence: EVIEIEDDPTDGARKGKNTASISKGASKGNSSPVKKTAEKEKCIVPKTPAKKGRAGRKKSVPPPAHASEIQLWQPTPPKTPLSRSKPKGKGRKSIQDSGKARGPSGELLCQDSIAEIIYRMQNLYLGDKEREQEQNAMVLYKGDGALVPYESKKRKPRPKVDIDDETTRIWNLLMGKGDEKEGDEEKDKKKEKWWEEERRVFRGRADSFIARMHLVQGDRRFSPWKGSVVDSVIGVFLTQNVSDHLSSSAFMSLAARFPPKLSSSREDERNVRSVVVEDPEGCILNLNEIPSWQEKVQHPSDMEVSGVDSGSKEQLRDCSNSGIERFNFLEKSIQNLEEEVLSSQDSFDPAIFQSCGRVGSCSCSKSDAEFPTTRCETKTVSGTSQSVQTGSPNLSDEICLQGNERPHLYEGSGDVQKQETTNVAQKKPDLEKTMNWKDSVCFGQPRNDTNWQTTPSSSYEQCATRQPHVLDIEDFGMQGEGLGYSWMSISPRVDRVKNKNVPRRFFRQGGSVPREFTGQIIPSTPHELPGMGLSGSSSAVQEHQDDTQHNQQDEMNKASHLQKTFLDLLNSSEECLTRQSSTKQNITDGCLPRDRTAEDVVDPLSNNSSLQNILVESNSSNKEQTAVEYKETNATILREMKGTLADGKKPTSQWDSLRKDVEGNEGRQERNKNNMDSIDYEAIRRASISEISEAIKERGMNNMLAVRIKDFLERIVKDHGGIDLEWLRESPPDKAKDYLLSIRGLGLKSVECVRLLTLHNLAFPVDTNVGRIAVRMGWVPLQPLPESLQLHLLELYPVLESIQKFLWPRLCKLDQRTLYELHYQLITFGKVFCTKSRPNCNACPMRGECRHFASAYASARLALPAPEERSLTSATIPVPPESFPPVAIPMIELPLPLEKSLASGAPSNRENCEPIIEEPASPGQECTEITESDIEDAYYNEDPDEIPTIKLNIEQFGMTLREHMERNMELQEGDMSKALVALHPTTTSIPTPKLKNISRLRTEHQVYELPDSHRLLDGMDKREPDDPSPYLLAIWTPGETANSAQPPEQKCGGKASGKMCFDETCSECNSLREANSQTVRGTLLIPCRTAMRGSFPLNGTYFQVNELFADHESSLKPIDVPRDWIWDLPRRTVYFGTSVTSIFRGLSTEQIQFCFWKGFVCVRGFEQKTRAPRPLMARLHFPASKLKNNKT

[2] = biological target: T2, DME (MBP-Δ537DME, wild-type glycosylase domain) (UniProt Q8LK56 SEQ:538-1729); assay: NaBH4-trapped covalent complex (~200 kd); 40 mM HEPES-KOH pH 8.0, 0.1 M KCl, 37 C; settings: tags: N-terminal MBP (pMAL-c2x), expressed in E. coli Rosetta; label: 5'-32P top strand
T2 chain: T1 sequence
From the text: DME breaks the phosophodiester linkage on the 3′-side of a 5-methylcytosine residue (hemimethylated substrate) and generates end-labeled DNAs that migrate on denaturing polyacrylamide gels at the predicted position for β-elimination products (FIG. 3C). The subsequent cleavage of the phosphodiester linkage on the 5′-side yields δ-elimination products through the same mechanism found in related DNA glycosylases (Bhagwat, M. and Gerlt, J. A., Biochemistry, 35, 659-665 (1996)). Treatment of products with strong base (NaOH) prior to gel electrophoresis confirmed the δ-elimination process at the predicted position (FIG. 3C). […] No lyase activity (FIG. 3E) or covalent trapping (FIG. 3D) was detected when DME was incubated with non-methylated oligonucleotides, or when hemimethylated substrate was incubated with no enzyme or mutant enzymes (D1304N or K1286Q). Plants have 5-methylcytosine in the three sequence contexts; CpG, CpNpG, and CpNpN (Bender, J., Ann Rev Plant Biology, 55, 41-68 (2004)). DME has activity on 5-methylcytosine in each of these sequence contexts (FIG. 3E). We detected no DME activity when single-stranded oligonucleotides with 5-methylcytosine were used in the reaction (data not shown). […]

DME D1304N (MBP-Δ537DME) = biological target: T3, DME D1304N (MBP-Δ537DME) (UniProt Q8LK56 SEQ:538-1729, D1304N); assay: no trapping or lyase activity detected (catalytic mutant); settings: tags: N-terminal MBP (pMAL-c2x); label: 5'-32P top strand
T3 sequence: T1 sequence with D767N
Description: (§1) 5′-labeled oligonucleotide substrates (13.3 nM) were incubated with DME protein (250 nM) in a 15 μl reaction with 40 mM HEPES-KOH (pH 8.0), 0.1 M KCl, 0.1 mM EDTA, 0.5 mM dithiothreitol, and 200 μg/mL BSA at 37° for 1 hr. The reaction was terminated with 15 μl of 95% formamide, 20 mM EDTA, 0.05% bromophenol blue, 0.05% xylene cyanol FF and boiled for 5 min. To induce […], NaOH was added at a final concentration of 0.1 M and the reaction was boiled for 7 min. Products were fractionated on a 15% polyacrylamide gel containing 7.5 M urea and 1×TBE. Electrophoresis was done at 1000V for 4 hrs with a Hoefer SQ3 gel apparatus. The gel was exposed to Kodak BioMax MR film at −80°. Methods for purification of recombinant DME, oligonucleotide substrates, NaBH₄ trapping, and toxicity in E. coli are in the Supplemental Experimental Procedures.
(§2) 5′-labeled oligonucleotide substrates (13.3 nM) were incubated with DME protein (250 nM) in a 15 μl reaction with 40 mM HEPES-KOH (pH 8.0), 0.1 M KCl, 0.1 mM EDTA, 0.5 mM dithiothreitol, and 200 μg/mL BSA at 37°. After 1 hr of incubation, 1 M NaBH₄ was added to a final concentration of 100 mM and the reaction tubes were placed at 37° for an additional 10 min. An equal volume of 2×SDS-PAGE loading buffer (90 mM Tris-HCl, pH 6.8, 20% glycerol, 2% SDS, 0.02% bromophenol blue, 100 mM dithiothreitol) was added to terminate the trapping reaction. […]

DME K1286Q (MBP-Δ537DME) = biological target: T4, DME K1286Q (MBP-Δ537DME) (UniProt Q8LK56 SEQ:538-1729, K1286Q); assay: as above; settings: tags: N-terminal MBP; label: 5'-32P top strand
T4 sequence: T1 sequence with K749Q
Description: as §1, §2

[3] = biological target: T2, DME (MBP-Δ537DME, wild-type glycosylase …); assay: NaBH4-trapped covalent complex; settings: tags: N-terminal MBP (pMAL-c2x), expressed in E. coli Rosetta; label: 5'-32P top strand; T/G mismatch
Description: 5′-labeled oligonucleotide substrates (13.3 nM) were incubated with DME protein (250 nM) in a 15 μl reaction with 40 mM HEPES-KOH (pH 8.0), 0.1 M KCl, 0.1 mM EDTA, 0.5 mM dithiothreitol, and 200 μg/mL BSA at 37°. After 1 hr of incubation, 1 M NaBH₄ was added to a final concentration of 100 mM and the reaction tubes were placed at 37° for an additional 10 min. An equal volume of 2×SDS-PAGE loading buffer (90 mM Tris-HCl, pH 6.8, 20% glycerol, 2% SDS, 0.02% bromophenol blue, 100 mM dithiothreitol) was added to terminate the trapping reaction. Products were boiled for 10 min before loading onto a 10% SDS-PAGE gel. The wet gel was exposed to Kodak Biomax MS film for 12-18 h at −80°.

## CTATACCTCCTCAACTCABAICGGTCACCGTCTCCGGCG / CGCCGGAGACGGTGACNGGAGTTGAGGAGGTATAG [abasic 18 opposite meC (MEA-1.6F18AP / MEA-1.6R17meC)]
[1]
  relative cleavage rate (fold rate vs hemimethylated): 0.1

B1: hemimethylated meCpG (MEA-1.6F18meC / MEA-1.6R) (dsDNA)
DNA 1: CTATACCTCCTCAACTCCGGTCACCGTCTCCGGCG
DNA 2: CGCCGGAGACGGTGACCGGAGTTGAGGAGGTATAG
modifications: 5mC at position 18 of top strand [top 18 (5mC)]
[2]
  binding result: binds
DME D1304N (MBP-Δ537DME)
  binding result: no binding
DME K1286Q (MBP-Δ537DME)
  binding result: no binding

B2: T/G mismatch (MEA-1.6F18T / MEA-1.6R) (dsDNA)
DNA 1: B1 DNA 1 with C18T
DNA 2: B1 DNA 2
[3]
  binding result: binds
